Assay [1] addresses T1, Recombinant mouse sclerostin (mouse, UniProt Q99P68 24-211).
T1 construct: Whole entry as named; also called mouse-SOST
T1 sequence: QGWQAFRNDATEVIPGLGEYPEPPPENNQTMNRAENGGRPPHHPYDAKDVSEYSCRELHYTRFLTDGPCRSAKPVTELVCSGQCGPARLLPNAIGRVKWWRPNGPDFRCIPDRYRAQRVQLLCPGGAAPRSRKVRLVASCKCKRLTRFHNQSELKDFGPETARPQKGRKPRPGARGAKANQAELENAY
Kind of assay: SPR (Biacore T200), 37 C, dissociation at pH 5.8 of complex formed at pH 7.4.
Description: (§1) The affinity of anti-sclerostin variants binding to human, cynomolgus monkey (cyno), rat, or mouse sclerostin at pH 7.4 and pH 5.8 were determined at 37 degrees C. using Biacore T200 instrument (GE Healthcare). Anti-human Fc (GE Healthcare) was immobilized onto all flow cells of a CM4 sensor chip using amine coupling kit (GE Healthcare). All antibodies and analytes were prepared in ACES pH7.4 or pH 5.8 buffer containing 20 mM ACES, 150 mM NaCl, 1.2 mM CaCl₂, 0.05% Tween 20, 0.005% NaN₃. Each antibody was captured onto the sensor surface by anti-human Fc. […] Sensor surface was regenerated each cycle with 3M MgCl₂.
(§2) The pH dependent interaction assessment was determined by a modified Biacore assay. Briefly, an additional dissociation phase at pH5.8 was integrated into the Biacore assay immediately after dissociation phase at pH7.4. This is to assess the pH-dependent dissociation between antibody and antigen from the complexes formed at pH7.4. The dissociation rate at pH5.8 buffer was determined by processing and fitting data using Scrubber 2.0 (BioLogic Software) curve fitting software.

The target in assay [2] is T1, Recombinant mouse sclerostin. Kind of assay: SPR (Biacore T200), 37 C, antibody captured by anti-human Fc, sclerostin as analyte, pH 5.8.
Description: as §1
Assay [3] deals with T2, Recombinant human sclerostin (human, UniProt Q9BQB4 24-213).
T2 construct: Whole entry as named; Secreted recombinant protein purified from FreeStyle293-F conditioned medium; also called human-SOST; Human SOST
T2 sequence: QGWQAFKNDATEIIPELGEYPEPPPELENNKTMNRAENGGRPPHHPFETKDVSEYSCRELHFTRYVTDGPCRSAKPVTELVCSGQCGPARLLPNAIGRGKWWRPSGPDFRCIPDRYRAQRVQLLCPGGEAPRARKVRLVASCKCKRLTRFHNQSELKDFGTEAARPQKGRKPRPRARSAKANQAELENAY
Description: SPR (Biacore T200), 37 C, dissociation at pH 5.8 of complex formed at pH 7.4.
Description: as §1, §2

Assay [4] deals with T3, Recombinant cynomolgus monkey sclerostin (cynomolgus monkey, UniProt Q9BG78 24-213 (Chlorocebus aethiops entry)).
T3 construct: Whole entry as named; expressed and purified as the human counterpart; also called cyno-SOST; cyno SOST
T3 chain: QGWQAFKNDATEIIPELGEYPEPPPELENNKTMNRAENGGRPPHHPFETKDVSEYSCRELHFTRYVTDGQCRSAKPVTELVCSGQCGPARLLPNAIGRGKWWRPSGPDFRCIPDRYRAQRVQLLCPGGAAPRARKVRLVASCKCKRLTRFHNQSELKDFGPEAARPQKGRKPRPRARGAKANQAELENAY
The description is as above.
Description: as §1, §2

The target of assay [5] is T3, Recombinant cynomolgus monkey sclerostin. Kind of assay: SPR (Biacore T200), 37 C, antibody captured by anti-human Fc, sclerostin as analyte, pH 5.8.
Description: as §1
Assay [6] addresses T2, Recombinant human sclerostin. Description: SPR (Biacore T200), 37 C, antibody captured by anti-human Fc, sclerostin as analyte, pH 7.4.
Description: as §1
For assay [7], the target named is T1, Recombinant mouse sclerostin. Kind of assay: SPR (Biacore T200), 37 C, antibody captured by anti-human Fc, sclerostin as analyte, pH 5.8; pH 5.8.
Description: as §1
Assay [8] shares this target. Description: SPR (Biacore T200), 37 C, antibody captured by anti-human Fc, sclerostin as analyte, pH 7.4; pH 7.4.
Description: as §1
The target in assay [9] is T4, Recombinant rat sclerostin (rat, UniProt Q99P67 29-213).
T4 construct: Whole entry as named; also called rat-SOST
T4 sequence: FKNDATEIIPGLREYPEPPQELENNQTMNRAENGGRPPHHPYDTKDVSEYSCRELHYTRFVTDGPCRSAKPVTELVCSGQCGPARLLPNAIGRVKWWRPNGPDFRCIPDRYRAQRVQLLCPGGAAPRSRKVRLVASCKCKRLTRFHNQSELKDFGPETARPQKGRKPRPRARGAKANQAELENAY
Description: SPR (Biacore T200), 37 C, dissociation at pH 5.8 of complex formed at pH 7.4.
Description: as §1, §2

The target of assay [10] is T4, Recombinant rat sclerostin. Description: SPR (Biacore T200), 37 C, antibody captured by anti-human Fc, sclerostin as analyte, pH 5.8.
Description: as §1
For assay [11], the target named is T2, Recombinant human sclerostin. The assay is described as above.
Description: as §1
The target of assay [12] is T3, Recombinant cynomolgus monkey sclerostin. Kind of assay: SPR (Biacore T200), 37 C, antibody captured by anti-human Fc, sclerostin as analyte, pH 7.4.
Description: as §1

B1: mabB (antibody, V domains shown)
VH: QVQLVQSGAEVKKPGASVKVSCKVSGFPIKDTFQHWVRQAPGKGLEWMGWSDPEIGDTEYASKFQGRVTMTEDTSTDTAYMELSSLRSEDTAVYYCATGDTTYKFDFWGQGTTVTVSS
VL: DIQMTQSPSSLSASVGDRVTITCKASQDVHTAVAWYQQKPGKAPKLLIYWASTRWTGVPSRFSGSGSGTDFTLTISSLQPEDFATYYCQQYSDYPWTFGGGTKVEIK
Take B1: in assay [1], the koff was found to be 0.00265 s⁻¹. Besides, in [2], the Kd turned out to be 0.26 nM.

B2: mabA (antibody, V domains shown)
VH: EVQLVQSGAEVKKPGASVKVSCKASGYTFTDYNMHWVRQAPGQGLEWMGEINPNSGGAGYNQKFKGRVTMTTDTSTSTAYMELRSLRSDDTAVYYCARLGYDDIYDDWYFDVWGQGTTVTVSS
VL: DIQMTQSPSSLSASVGDRVTITCRASQDISNYLNWYQQKPGKAPKLLIYYTSRLLSGVPSRFSGSGSGTDFTLTISSLQPEDFATYYCQQGDTLPYTFGGGTKVEIK
Regarding B2, the results for the koff in assay [3] and in assay [4] were 0.00631 s⁻¹ and 0.00697 s⁻¹, respectively. Besides, the Kd in [5] was 1.4 nM; in assay [6], 0.08 nM; in assay [7], under 0.01 nM; in assay [8] it was under 0.01 nM.

B3: mabA_pH1 (antibody, V domains shown)
VH: EVQLVQSGAEVKKPGASVKVSCKASGYTFTDYNMHWVRQAPGQGLEWMGEINPNSGHAGYNQKFKGRVTMTTDTSTSTAYMELRSLRSDDTAVYYCARLHYDDIYDDWYFDVWGQGTTVTVSS
VL: DIQMTQSPSSLSASVGDRVTITCRASHDISNYLNWYQQKPGKAPKLLIYYTSRLLSGVPSRFSGSGSGTDFTLTISSLQPEDFATYYCQQGDTLPYTFGGGTKVEIK
In the case of B3, the figures for the koff in [9] and in assay [1] were 0.0059 s⁻¹ and 0.0107 s⁻¹, respectively. Also, in [10], the dissociation constant (Kd) worked out at 4.2 nM.

B4: mabA_NpH2 (antibody, V domains shown)
VH: EVQLVQSGAEVKKPGASVKVSCKASGYTFTDYNMHWVRQAPGQGLEWMGEINPNSGGAGYNQKFKGRVTMTTDTSTSTAYMELRSLRSDDTAVYYCARLGYDDIYDDWYFDVWGQGTTVTVSS
VL: DIQMTQSPSSLSASVGDRVTITCRASQDISNYLNWYQQKPGKAPKLLIYHTSRLLSGVPSRFSGSGSGTDFTLTISSLQPEDFATYYCQQGDTLPYTFGGGTKVEIK
For B4, the dissociation rate constant (koff) in [3] was found to be 0.0023 s⁻¹; in assay [4] it was 0.0018 s⁻¹. Moreover, the dissociation constant (Kd) in assay [11] came out at 0.69 nM; in assay [12], 0.28 nM.

Source of the values: patent US20190352387A1 (Chugai, published 2019).
